Residue numbers refer to the chain shown, from its start. Names may count otherwise.
B1: µ4-R283D-HA: HA-epitope-tagged full-length μ4-R283D, overexpressed (protein)
chain: MISQFFILSSKGDPLIYKDFRGDSGGRDVAELFYRKLTGLPGDESPVVMHHHGRHFIHIRHSGLYLVVTTSENVSPFSLLELLSRLATLLGDYCGSLGEGTISRNVALVYELLDEVLDYGYVQTTSTEMLRNFIQTEAVVSKPFSLFDLSSVGLFGAETQQSKVAPSSAASRPVLSSRSDQSQKNEVFLDVVERLSVLIASNGSLLKVDVQGEIRLKSFLPSGSEMRIGLTEEFCVGKSELRGYGPGIRVDEVSFHSSVNLDEFESHRILRLQPPQGELTVMDYQLSDDLPSPLPFRLFPSVQWDRGSGRLQVYLKLRCDLLSKSQALNVRLHLPLPRGVVSLSQELSSPEQKAELAEGALRWDLPRVQGGSQLSGLFQMDVPGPPGPPSHGLSTSASPLGLGPASLSFELPRHTCSGLQVRFLRLAFRPCGNANPHKWVRHLSHSDAYVIRI
modifications: left off: HA, end not stated, kept
B2: µ4-F255A-HA: HA-epitope-tagged full-length μ4-F255A, overexpressed (protein)
chain: B1 chain with F255A, D283R
modifications: left off: HA, end not stated, kept
B3: μ4-R283D: μ4 with the single mutation R283D at the μ4-binding site (C-terminal domain; untagged full-length in b45) (protein)
chain: QQSKVAPSSAASRPVLSSRSDQSQKNEVFLDVVERLSVLIASNGSLLKVDVQGEIRLKSFLPSGSEMRIGLTEEFCVGKSELRGYGPGIRVDEVSFHSSVNLDEFESHRILRLQPPQGELTVMDYQLSDDLPSPLPFRLFPSVQWDRGSGRLQVYLKLRCDLLSKSQALNVRLHLPLPRGVVSLSQELSSPEQKAELAEGALRWDLPRVQGGSQLSGLFQMDVPGPPGPPSHGLSTSASPLGLGPASLSFELPRHTCSGLQVRFLRLAFRPCGNANPHKWVRHLSHSDAYVIRI
modifications: left off: GST, N-terminal, cleaved
B4: µ4-HA: HA-epitope-tagged full-length wild-type μ4, overexpressed (protein)
chain: B1 chain with D283R
modifications: left off: HA, end not stated, kept
B5: µ4-D190A-HA: HA-epitope-tagged full-length μ4-D190A, overexpressed (protein)
chain: B1 chain with D190A, D283R
modifications: left off: HA, end not stated, kept
B6: μ4-D190S: D190S mutant of μ4 (C-terminal domain in vitro; full-length, HA-tagged or untagged, in cells) (protein)
chain: B3 chain with D31S, D124R
modifications: left off: GST, N-terminal, cleaved
B7: H256A: μ4 mutant, μ4-binding site, reported previously (protein, UniProt O00189 1-453, looked up, variant H256A)
AP-4 complex subunit mu-1: B1 chain with H256A, D283R
B8: R283D: μ4 mutant, μ4-binding site, Y2H construct (protein, UniProt O00189 1-453, looked up, variant R283D)
AP-4 complex subunit mu-1: B1 chain
B9: E265A: μ4 mutant, μ4-binding site, reported previously (protein, UniProt O00189 1-453, looked up, variant E265A)
AP-4 complex subunit mu-1: B1 chain with E265A, D283R
B10: F255A: μ4 mutant, μ4-binding site, Y2H construct (protein, UniProt O00189 1-453, looked up, variant F255A)
AP-4 complex subunit mu-1: B1 chain with F255A, D283R
B11: S257A: μ4 mutant, μ4-binding site, reported previously (protein, UniProt O00189 1-453, looked up, variant S257A)
AP-4 complex subunit mu-1: B1 chain with S257A, D283R
B12: R283A: μ4 mutant, μ4-binding site, reported previously (protein, UniProt O00189 1-453, looked up, variant R283A)
AP-4 complex subunit mu-1: B1 chain with D283A
B13: L261S: μ4 mutant, μ4-binding site, Y2H construct (protein, UniProt O00189 1-453, looked up, variant L261S)
AP-4 complex subunit mu-1: B1 chain with L261S, D283R

System: APP-GFP
Test: Distribution of APP-GFP in MDA-MB-231 cells
Format: cell-based, human
Settings: 24 h; APP-GFP F615P/D664A; EEA1, TGN46 staining
Procedure: H4 human neuroglioma or MDA-MB-231 human mammary gland epithelial cells obtained from the American Type Culture Collection (Manassas, VA) were maintained in DMEM (H4) or DMEM/F12 (MDA-MB-231) supplemented with 10% (v/v) fetal bovine serum (FBS), 100 U/ml penicillin and 100 µg/ml streptomycin (Life Technologies). Transfections were carried out using Lipofectamine 2000 (Life Technologies) for 1 h at 37°C in the absence of FBS, and cells were analyzed 16, 24 or up to 36-h after transfection, for which we observed no notorious signs of loss in cell viability. SDS-PAGE, immunoblotting, and immunoprecipitation were performed as described. H4 cells after 16 h of transfection were washed twice with cold phosphate buffered saline supplemented with 0.1 mM CaCl2 and 1 mM MgCl2 (PBS-Ca/Mg), and incubated at 4°C for 1 h in lysis buffer (50 mM Tris-HCl pH 7.4, 150 mM NaCl, 1 mM EDTA, 1% (v/v) Triton X-100, and a cocktail of protease inhibitors). Soluble extracts were subjected to overnight immunoprecipitation at 4°C either with rabbit anti-HA-epitope antibody (kindly provided by R. Hegde, MRC Laboratory of Molecular Biology, Cambridge, UK) or with mouse antibody to the ε subunit of AP-4 (BD Biosciences) immobilized onto protein A- or a 1∶1 mix of protein A- and protein-G Sepharose beads (GE Healthcare), respectively. Soluble extracts and immunoprecipitates were processed by SDS-PAGE and blotted with horseradish peroxidase-conjugated mouse anti-HA antibody (Macs Miltenyi Biotec) or with mouse antibody to the ε subunit of AP-4.
Indirect immunofluorescence staining of fixed, permeabilized cells was performed as previously described, using sheep polyclonal antibody anti-TGN46 (Serotec), and mouse monoclonal antibody anti-EEA1 (BD Biosciences) or rabbit polyclonal antibody anti-EEA1 (Santa Cruz Biotechnology), followed by the secondary antibodies Alexa-647–conjugated donkey anti-mouse IgG, Alexa-594–conjugated donkey anti-rabbit IgG, or Alexa-594– or -647–conjugated donkey anti-sheep IgG (Life Technologies). Images were acquired either with an Olympus FluoView FV1000 scanning unit fitted on an inverted Olympus IX81 microscope and equipped with a PlanApo 60x oil immersion objective (NA 1.40; Olympus, Melville, NY), using similar settings as described previously, or with an AxioObserver.D1 microscope equipped with a PlanApo 63x oil immersion objective (NA 1.4), and an AxioCam MRm digital camera (Carl Zeiss). Quantitative analysis of colocalization was performed as we previously described, with minor modifications. Briefly, 12-bit images were acquired under identical settings avoiding signal saturation, and corrected for noise, cross-talk, and background signals on each set of images. The signals of TGN46 or EEA1 in each set of images were used in Image J (version 1.44o; Wayne Rasband, NIH, http://imagej.nih.gov) to define masks regarded as Golgi/TGN or early endosomes localization, respectively. The percentage of localization in each compartment was calculated for each cell (n = 10–15) subtracting either the Golgi/TGN or the early endosomes mask from the total integrated pixel intensity of APP-GFP, and the remainder of the signal was considered as in the ‘rest of the cell’.
We next examined the functional role of both the μ2- and the μ4-binding site of μ4 on the intracellular trafficking of APP. We have shown that the YKFFE-μ4 interaction is functional in vivo because its disruption by depletion of μ4 by RNAi produces a shift in the distribution of APP from endosomes to the TGN [18]. To evaluate now the function of each binding site for tyrosine-based signals, we tested a dominant-negative effect by overexpressing untagged or HA-epitope-tagged full-length wild-type μ4 or the variants untagged or HA-epitope-tagged μ4-D190A, μ4-D190S, μ4-F255A or μ4-R283D in H4 neuroglioma cells, as well as in MDA-MB-231 mammary gland epithelial cells, and examined by immunofluorescence the distribution of APP-GFP. […]

| Molecule | APP redistribution (figure title) |
| --- | --- |
| B1 | APP redistributes from endosomes to the TGN |
| B2 | APP redistributes from endosomes to the TGN |
| B3 | APP redistributes from endosomes to the TGN |

Same assay, conditions: HA-epitope-tagged constructs, 24 h after transfection; EEA1/TGN46 immunofluorescence

| Molecule | change in distribution of APP |
| --- | --- |
| B4 | no apparent change in the distribution of APP |
| B5 | minor redistribution of APP to the TGN |
| B1 | strong redistribution of APP from endosomes to the TGN |
| B2 | strong redistribution of APP from endosomes to the TGN |

Same assay, conditions: either HA-epitope-tagged or untagged; 24 h

| Molecule | effect on localization of APP-GFP in endosomes |
| --- | --- |
| B6 | little or no effect |

System: cytosolic tail of APP
Test: not given
Settings: mutations at μ4-binding site; previously identified; ref [18]; cited from earlier work
From the text: This tyrosine-based signal is related to the YXXØ motif, which is the signal contained in the cytosolic tail of transmembrane proteins that binds to a different site on the μ2 subunit of AP-2 [28], or on the μ3A subunit of AP-3 [30]. In this study, we wanted to determine whether this putative second binding site on μ4, referred here as the μ2-binding site (Figure 1, A and B), played any role in the binding to the YKFFE signal of APP ...

| Molecule | effect of mutation on binding to the APP YKFFE signal |
| --- | --- |
| B7 | null effect |
| B8 | sensitivity |
| B9 | null effect |
| B10 | sensitivity |
| B11 | null effect |
| B12 | null effect |
| B13 | sensitivity |

Source: paper PMC3912200, “Structural and Functional Characterization of Cargo-Binding Sites on the μ4-Subunit of Adaptor Protein Complex 4” (PLoS ONE, 2014)
